Measurements reported in publication PMC2916881.

Assays:
human fibrinogen (human) = human fibrinogen (human) (UniProt P02671); assay: SPR; BIAcore 3000, CM5 chip; human prothrombin and human fibrinogen amine-linked, Coa or vWbp injected in HBS-P (20 mM HEPES pH 7.4, 150 mM NaCl, 0.005% P20), flow 2 uL/min; 1:1 binding model with drifting baseline and local Rmax (the legend of Figure S5 tells the opposite orientation)
[1] = molecular target: human prothrombin (human); assay: as above

UniProt P02671, sequence (P02671 36-866, chain 1 of 3): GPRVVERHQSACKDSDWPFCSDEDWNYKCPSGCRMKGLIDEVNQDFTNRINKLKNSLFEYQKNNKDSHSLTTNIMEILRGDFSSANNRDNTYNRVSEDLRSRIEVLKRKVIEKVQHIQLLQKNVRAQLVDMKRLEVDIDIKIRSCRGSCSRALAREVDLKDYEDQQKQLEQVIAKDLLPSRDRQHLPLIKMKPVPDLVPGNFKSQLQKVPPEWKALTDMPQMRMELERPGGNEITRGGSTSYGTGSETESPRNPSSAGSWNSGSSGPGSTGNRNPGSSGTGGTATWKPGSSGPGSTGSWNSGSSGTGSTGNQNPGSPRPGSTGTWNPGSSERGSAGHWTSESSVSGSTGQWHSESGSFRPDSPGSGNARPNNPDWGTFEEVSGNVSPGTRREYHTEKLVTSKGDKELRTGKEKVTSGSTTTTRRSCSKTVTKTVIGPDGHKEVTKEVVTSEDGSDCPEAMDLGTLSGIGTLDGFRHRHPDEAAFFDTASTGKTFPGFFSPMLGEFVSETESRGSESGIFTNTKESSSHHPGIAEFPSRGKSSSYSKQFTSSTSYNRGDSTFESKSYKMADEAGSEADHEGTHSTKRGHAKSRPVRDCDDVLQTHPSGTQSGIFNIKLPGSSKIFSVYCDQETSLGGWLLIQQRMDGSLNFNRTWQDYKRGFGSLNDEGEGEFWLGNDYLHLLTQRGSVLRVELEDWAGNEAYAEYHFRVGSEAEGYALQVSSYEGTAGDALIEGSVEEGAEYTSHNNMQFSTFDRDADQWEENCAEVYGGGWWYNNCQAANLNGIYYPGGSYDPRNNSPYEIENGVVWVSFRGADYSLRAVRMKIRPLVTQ
UniProt P02671, sequence (P02675 45-491, chain 2 of 3, further chain): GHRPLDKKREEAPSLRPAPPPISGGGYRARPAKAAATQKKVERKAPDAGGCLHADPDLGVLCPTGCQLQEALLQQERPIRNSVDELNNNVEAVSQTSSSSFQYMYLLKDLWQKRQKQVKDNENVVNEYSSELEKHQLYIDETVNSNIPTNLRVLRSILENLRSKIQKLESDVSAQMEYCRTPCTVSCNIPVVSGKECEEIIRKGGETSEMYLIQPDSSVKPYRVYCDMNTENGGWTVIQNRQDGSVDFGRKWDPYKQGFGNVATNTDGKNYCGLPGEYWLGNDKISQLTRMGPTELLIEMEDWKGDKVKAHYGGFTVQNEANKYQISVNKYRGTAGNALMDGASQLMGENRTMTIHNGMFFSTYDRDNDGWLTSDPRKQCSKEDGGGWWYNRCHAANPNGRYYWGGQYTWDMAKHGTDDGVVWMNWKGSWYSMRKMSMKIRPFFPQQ
UniProt P02671, sequence (P02679 27-453, chain 3 of 3, further chain): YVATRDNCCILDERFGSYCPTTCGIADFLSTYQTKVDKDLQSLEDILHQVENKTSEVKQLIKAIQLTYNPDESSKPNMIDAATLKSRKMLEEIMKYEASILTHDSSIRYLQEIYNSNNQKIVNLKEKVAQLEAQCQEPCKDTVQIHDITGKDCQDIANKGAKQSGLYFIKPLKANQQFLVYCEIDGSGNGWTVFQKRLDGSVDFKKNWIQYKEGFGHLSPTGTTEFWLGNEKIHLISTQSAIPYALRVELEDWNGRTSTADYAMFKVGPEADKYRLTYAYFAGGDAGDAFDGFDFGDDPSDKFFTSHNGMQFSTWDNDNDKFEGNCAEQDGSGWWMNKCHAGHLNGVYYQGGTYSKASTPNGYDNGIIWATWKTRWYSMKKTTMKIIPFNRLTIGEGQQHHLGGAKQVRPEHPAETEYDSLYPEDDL

Row | Substance | Kd (human fibrinogen (human)) | Kd [1]
1 | S. aureus Newman von Willebrand factor binding protein (natural protein) | 271 nM | 98 nM
2 | S. aureus Newman Coagulase (natural protein) | 33 nM | 5 nM
